The source of these data is PMC5261137 (Proteins, 2016).

The experiment concerns the target T1, SipD^C244S (residues 39-343 C244S) (Salmonella, UniProt Q56026 39-343, C244S).
T1 sequence: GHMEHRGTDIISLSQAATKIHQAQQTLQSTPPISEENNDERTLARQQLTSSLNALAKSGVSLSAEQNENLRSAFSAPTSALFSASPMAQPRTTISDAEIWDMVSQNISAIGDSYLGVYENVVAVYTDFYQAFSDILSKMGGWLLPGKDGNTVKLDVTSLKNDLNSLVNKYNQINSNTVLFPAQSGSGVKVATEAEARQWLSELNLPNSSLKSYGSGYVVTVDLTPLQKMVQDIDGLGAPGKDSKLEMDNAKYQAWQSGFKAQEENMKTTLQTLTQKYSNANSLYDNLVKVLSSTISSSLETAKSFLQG
Briefly: NMR titration.

B1: SipB^11-232 (domain or fragment)
chain: SGYTQNPRLAEAAFEGVRKNTDFLKAADKAFKDVVATKAGDLKAGTKSGESAINTVGLKPPTDAAREKLSSEGQLTLLLGKLMTLLGDVSLSQLESRLAVWQAMIESQKEMGIQVSKEFQTALGEAQEATDLYEASIKKTDTAKSVYDAATKKLTQAQNKLQSLDPADPGYAQAEAAVEQAGKEATEAKEALDKATDATVKAGTDAKAKAEKADNILTKFQG
As to B1, the binding result is given as “binds”.
